One may read the Kd as the free concentration of one partner at which half of the binding sites on the other are occupied at equilibrium, for simple one-to-one binding. A higher Kd goes with weaker binding.

Four substances from publication PMC5085866 can be followed below.

Like-named read-outs stand apart in the source and are kept apart here.

What all share (experiment): AUC
For assay [1], the target named is Enterococcus faecium LiaR DNA binding domain (residues 140-210) (Enterococcus faecium).
Assay [2] has as its target Enterococcus faecium LiaR W73C, full length (Enterococcus faecium).
Assay [3] has the same target. This is another data set of the same source.
The target of assay [4] is Enterococcus faecium LiaR receiver domain (residues 1-139) (Enterococcus faecium).
The target in assay [5] is Enterococcus faecium LiaR receiver domain (residues 1-139) W73C (Enterococcus faecium).
For assay [6] the target is unchanged. This is another data set of the same source.

The substance “Enterococcus faecium LiaR DNA binding domain (residues 140-210) (domain or fragment)” had a Kd in assay [1] of 0.4 µM.

For “Enterococcus faecium LiaR W73C, full length (natural protein)”, the Kd in assay [2] amounted to 182 µM; in assay [3], 236 µM.

“Enterococcus faecium LiaR receiver domain (residues 1-139) (domain or fragment)” gave an equilibrium dissociation constant (Kd) in assay [4] of 676 µM.

With “Enterococcus faecium LiaR receiver domain (residues 1-139) W73C (domain or fragment)”, the dissociation constant Kd is 94 µM in assay [5] and 0.8 µM in assay [6].
